# Assay results reported in the nanobody polyreactivity screen of Harvey et al. (2022).
# Experiment: yeast display, Sf9 membrane polyspecificity reagent, FACS + sequencing; frameworks hold sequencing errors
# In short: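 Sorting gates, low and high (top ~1%), were placed on anti-HA fluorescence to track expression and on streptavidin fluorescence to track reagent binding. A clone's polyreactivity label is taken from the gate it came out of. The reagent was 10% biotinylated, detergent-solubilized Sf9 membrane, applied for 1 hour at 4 °C to galactose-induced yeast display cells.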
row,Sequence,polyreactivity (PSR sort gate)
1,QVQLVESGGGFFQAGGSLRLSCAASGSTFVYNAMGWYRQAPGKERELVAAISRNGGRTYYADSVKGRFTISRDNAKNTVYFQMNSLKPEDTAVYYCAADYRVQLRKEYDYWGQGTQVTVSS,high polyreactivity
2,QVQLVESGGGFVQAGGSLGLSCAASGSIFFVYAMGWYRQAPGKERELVADSTNGGDRNYADSVKGRFTISREHAKNTVYLQMHSLKPEDTAVYDCNARYYGYRSWLEAYNRGDYWGQATQVTVSS,high polyreactivity
3,QVQLVESGGGFVQAGGSLRFSCAASGRIFPGYAMGWYRQAPGKERELVAAISASGGSTYDADSVKGRFTISRDNAKNPVYLQMNSLKPEDPAVYYCNAVYRLIRFDYWGQGTQVTVSS,high polyreactivity
4,QVQLVESGGGFVQAGGSLRISCAASGSTIGGNGKGWYRQAPGKEREIVATITWPSGSTYYADSVKGRFTISRDNAKNTVYLQMKSLKPEDTAVYYCAKNTSSRRNPWYYYWGQGTQVTVSS,high polyreactivity
5,QVQLVESGGGFVQAGGSLRLSCAASGFIFNRNAMGWYRQAPGKERELVAAISRSGGRTYYADSVKGRFTISRDTAKNTDYFQMNSLKPEDTAVYSCATEGYDGEFDYWGQGTQVTVSS,high polyreactivity
6,QVQLVESGGGFVQAGGSLRLSCAASGFTFTSYAMGWYRQAPGKEREFVAAIRRSGSGTNYADSVKGRFTISRDNAKNTVYLQLNSLKPEDTAVYYCAAEQWGWYWYDYWGQGTQVTVSS,high polyreactivity
7,QVQLVESGGGFVQAGGSLRLSCAASGLSFNFNAMGWYRQAPGKERELVAAIDSGGDTNYADSVKGRFSISRDNEKNTVYLQMNSLKPEDTAVYYCNTDRYPYAFEYWGQGTQVTVSS,low polyreactivity
8,QVQLVESGGGFVQAGGSLRLSCAASGLTFWPYVMGWYRQAPGKERELVAAIDDTGITYYADSVKGRFTISRDNAKNTVYLQMNSLKPEDTAVYYCATDWDYYFPWIYPSDAGPEDGYWGQGTQVTVSS,low polyreactivity
9,QVQLVESGGGFVQAGGSLRLSCAASGRIFKQYGIGWYRQAPGKERELVAAIRSGDSTNYADSVKGRFTISRDNAKNTVYLQMNSLKPEDTAVYYCARDRPGDYAGYDYWGQGTQVTVSS,low polyreactivity
10,QVQLVESGGGFVQAGGSLRLSCAASGRIFPEYSRGWYRQAPGKERELVASINSDGSTNYADSVKGRFTISRDNAKNTVYLQMNSLKPEDTAVYYCATEGSGTGIFISKFDYWGQGTQVTVSS,low polyreactivity
11,QVQLVESGGGFVQAGGSLRLSCAASGRIFTRYAMGWYRQAPGKERELVASISWSGDGTYYADSVKGRFTISRDNAKNTVYLQMNSLKPDDTAVYYCAARYGTVVPGQVRWYGYGYWGQGTQVTVSS,high polyreactivity
12,QVQLVESGGGFVQAGGSLRLSCAASGRNFFSNAMGWYRQAPGNEWELVASITSRGGTTYYADSVKGRFTISSYNAKNPVYLQMNSVKPEDTAVYYCAALRRSYFGYWGQVTQVTVSS,high polyreactivity
13,QVQLVESGGGFVQAGGSLRLSCAASGRTFQFYAMGWYRQAPGKERELVAAITYSGDSTYYADSVKGRFTISRDNAKNTVYLQMNSLKPEDTAVYYCAAGVWFYWYEYDYWGQGTQVTVSS,high polyreactivity
14,QVQLVESGGGFVQAGGSLRLSCAASGSIFDYYTMGWYRQAPGKEREFVAGISDSGGSTNYADSVKGRFTISRDNAKNTVYLQMNSLKPEDTAVYYCNAEYVGWFYKYDYWGQGTQVTVSS,high polyreactivity
15,QVQLVESGGGFVQAGGSLRLSCAASGSIFGSYAMGWYRQAAGKERELVPDISSGGSTNYADSVKGRFTISRDNAKYTVYLQMNSLKPEDTAVYYCNADDPAGYLYWWGSWLESDYWGQGTQVTVSS,low polyreactivity
16,QVQLVESGGGFVQAGGSLRLSCAASGSIFRFYAMGWYRQAPGKERELVASITSGGSTNYADSVKGRFTISRDNAKNTVYLQMNSLKPEDTAVYYCAVRLKGYRRRDYWGQGTQVTVSS,high polyreactivity
17,QVQLVESGGGFVQAGGSLRLSCAASGSIFVKYAMGWYRQAPGTERELVAAISRSGDSTYYADSVKGRFTLSRDNAKNTVYLQMNSLNPEDTAAYSCAAYSGYGGVSMYYWGQGTQVTVSS,low polyreactivity
18,QVQLVESGGGFVQAGGSLRLSCAASGSIFWTYAMGWYRPAPGNERELVATIPYSDGNTYYADSVKGRFTISRDHAKNTVYLQMNSLKPEDTAVYYGAADTVPDWQEYDYWGQGTQVTVSS,low polyreactivity
19,QVQLVESGGGFVQAGGSLRLSCAASGSTFAYYTMGWYRQAPGKERELVAASYGAGGSTYYADSVKGRFTISRDNAKNTVYLQRNSLIPEDTAVYYCNVVVSVHISVSQYDYWGQGTQVTVSS,high polyreactivity
20,QVQLVESGGGFVQAGGSLRLSCAASGSTFSVYAMGWYRQAPGKERELVATIRRGGSTYADSVKGRFTISRDNAKNTVYLQMNSLKPEDTAVYDCAADAYVSSQPMDYWGQGTQVTVSS,high polyreactivity
21,QVQLVESGGGFVQAGGSLRLSCAGSGSTFTSYAMGWYRQAPGKERELVASIRSTSGRTYYADSVKGRFTISRDNAKNTVYLQMNSQKPQDTAVYYCAAATYGTWWTYADNPYDYWGQGTQGTVSS,high polyreactivity
22,QVQLVESGGGFVQAGGSLRLSCPPSGRIIQAYAMAWYRQSPGKERELVAAISRSGGGTYYADSVKVRFTISRDNAKNTVYFLMNSLKPEDTAVSYCNAYYYYYTARWTQVNYWGQGTQVTVSS,high polyreactivity

row,Sequence,polyreactivity (PSR sort gate)
1,QVQLVESGGGFVQAGGSLRLSFAASGFTFGRYAMGWYIQAPGKERELVAAISWSDGSTYYADSVKGRFTISRDNAKNTVYLQMNSLKPQDTAVYYCAARYGGGISQAKYYYWGQGTQVTVSS,high polyreactivity
2,QVQLVESGGGFVQARGSLRLSCAACGRTYFPNAMGWYRQAPGKERELVAAITTSGGITYYADSVKGRFTISRDNAKNTVYLQMNSLKPEDTAVYYCATEWRTTGYRYYYWGQGTQVTVSS,high polyreactivity
3,QVQLVESGGGIDQAGGSLRLSCAASAFTLINYAMAWYRQAPGKERELVAAISQSGGSTYYADSVKGRFTISSDNAKNTVYLQMNSLKPEDTAVYYCNARRRGWGWTIGYVWRDDYWGQGTQVTVSS,high polyreactivity
4,QVQLVESGGGIFQAGGSLRLSCAASGRIYNYYAMGWTRQAPGQEREFVAAITRSGGRPYYADSVKGRFTISRDKGKNTVYLLMNSLKPEDTAVYYFAAPFGTYAYDYWGQGTLVTVSS,high polyreactivity
5,QVQLVESGGGIFQAGGSLRLSCSASGFTLQGYAMVWSRQAPGKERELVAAISWSGGSTYYADSVKGRFTISRDNAKNTVYLQMNSLKPEDTAVYYCAAETYFAEYWGQGTQVTVSS,high polyreactivity
6,QVQLVESGGGILQAGGSLRLSCAASGFISSVNAMGWYRQATGKERELVAAISDSATSTYYADSVKGRFTISRDNAKNTVYLQMNSLKPVDTALYYCAAYSHYVGYEYWGQGTQVTVSS,high polyreactivity
7,QVQLVESGGGILQAGGSLRLSCAASGITFVVYAMGCYRQAPGKERELVDSITYSGGSTYYADSVKGRFTISRDNAKNTVYLQMISLKPEDTAFYYCNADGYSIYYLPYSDYDAYDYWGQGTQVTVSS,low polyreactivity
8,QVQLVESGGGIVEAGVSLRLRGAASGGSFKSKAMVWYRQAPGNEREFVAAISSSGGSTYYADSVKGRFTISRDNAKNTVYLLMNILKPEDTAVYYCAADDYGYPYLSYDYWGQGTQVTVSS,high polyreactivity
9,QVQLVESGGGIVQACGSLRLSCAASGFTFYVYAMGWYRKAPGKEREFVAAISKSGGRTYYADSVMGRFTISRDNAKNTVYLQMNSLKPEDTAVYYCGRYNRYQIIYPGFDYWGQGTQVTVSS,high polyreactivity
10,QVQLVESGGGIVQAGGRLRLSCAASGNTFQDYAMGWYRQAPGKERELVAAINSGGSTNYADSVKGRFTISRDNAKNTVYLQMNSLKPEDTAVYYCAAEPGEGFDYWGQGTQVTVSS,low polyreactivity
11,QVQLVESGGGIVQAGGSLRISCAASGYNFRYNAMGWYRQAPGKERELVATITRGGSTNYPDSVKGRFTISRDNAKNTVYLQMNSMKPEDTAVYYCKKEAAPLGFVPSYYGRDYWGQGTQVTVSS,low polyreactivity
12,QVQLVESGGGIVQAGGSLRLRCAASGFTFERYSMGWYRQAPGKERELVATITRRSGRTSYADSVKGRFTISRDNATNTVYLQMNRLKPEDTAVYYCAVDDAYPDRYDYWGQGTQVTVSS,high polyreactivity
13,QVQLVESGGGIVQAGGSLRLRCAASGSTFNKYAMGWYRQAPGKERELVAAISGGGRTNYADSVKGRFTISRDNAKNTVYLQMNSLKPEDTAVYSCARPSPHKGYDYWGQGTQVTVSS,high polyreactivity
14,QVQLVESGGGIVQAGGSLRLRCAASGSTFYLNVMGWYRQAPGQERELVAAISSGDGSTYYADSVKGRFTISRDNAKNTVYLQMNSLKPEDTAVYYCAAEPDTEVDYDYWGQGTQVTVSS,low polyreactivity
15,QVQLVESGGGIVQAGGSLRLSCAASAIIFLDNPMGWSRQAPGKERELVADITSSGGSTYYADSVKGRFTISRDNAKNTVSLQMNSLKPEDTAVYYCAKYVYGKFDGVRFSYDYWGQGTQVTVSS,low polyreactivity
16,QVQLVESGGGIVQAGGSLRLSCAASGFTFARNAMGWSRQAPGNEWELVAAISYRGGSTYYADSVKGRFTISRDNAKNTLYLQMNSLKPQDTAVYYCAAEVVWYVYRRYYYWGQGTQVTVSS,high polyreactivity
17,QVQLVESGGGIVQAGGSLRLSCAASGFTFRGNAMGWYRQAPGKERELVAVINASGDSTYYADSVKGRFTISRDNAKNTVYLQMNSLKPEDTAVYYCARAYTRRWRYDYWGQGTQVTVSS,high polyreactivity
18,QVQLVESGGGIVQAGGSLRLSCAASGGIFFPNAMGWYRQAPGKERELVAAISWSAGSTYYADSVKVRFTISRDNAKNTVYLKKISLIPEDTAVYYCAAAGSNYTVWYGYYYWGQGTQVTVSS,low polyreactivity
19,QVQLVESGGGIVQAGGSLRLSCAASGIIFYGYAMGWYRQAPGKERELVAVITSGGSTNYADSVKGRFTISRDNAKNTVYLQMNSLKPEDTAVYYCNAGYVSPDYDSWGQGTQVTVSS,high polyreactivity
20,QVQLVESGGGIVQAGGSLRLSCAASGITFPNYAMGWYRQAPGKERELVAAISSSGGSTYYADSVKGRFTISRDNPKNTVYLQMNSLKPEDTAVYYCATAINVYPRLDYGYWGQGTQVTVSS,low polyreactivity
21,QVQLVESGGGIVQAGGSLRLSCAASGLIFSVNAMGWYRQAPGKERELVASISVSGGSTYYADSVKGRFTISRDNAKNTVYLQMNSLKPEDTAVYYCNTVPLAGEYSTDLRYDYWGQGTQVTVSS,low polyreactivity
